The values that follow come from US20220306728A1 (VIR BIOTECHNOLOGY, published 2022).

The target in test [1] is H3N2 representative viral strain (hemagglutinin), Example 6. As to the kind of experiment: cell-based or functional assay.
The target in test [2] is H1N1 representative viral strain (hemagglutinin), Example 6. Nature of the test: cell-based or functional assay.

B1: FluAB_MLNS (antibody)
heavy: not shown
light: DIQMTQSPSSLSASVGDRVTITCRTSQSLSSYTHWYQQKPGKAPKLLIYAASSRGSGVPSRFSGSGSGTDFTLTISSLQPEDFATYYCQQSRTFGQGTKVEIKRTVAAPSVFIFPPSDEQLKSGTASVVCLLNNFYPREAKVQWKVDNALQSGNSQESVTEQDSKDSTYSLSSTLTLSKADYEKHKVYACEVTHQGLSSPVTKSFNRGEC
Regarding B1, the “IC50 of in vitro neutralization (MDCK cells, neuraminidase activity read-out)” value in test [1] turned out to be 17.9 nM; in test [2] it was 15.6 nM.
